B1: 388 (protein)
chain: LDNGLARTPTMGWLHWERFMCNLDCQEEPDSCISEKLFMEMAERMVSEGWKDAGYEYLCIDDCWMAPQRDSEGRLQADPQRFPHGIRQLANYLHSKGLKLGIYADVGNKTCAGFPGSFGYYDIDAQTFADWGVDLLKFDGCYCDSLENLADGYKHMSLALNRTGRSIVYSCEWPLYMWPFQKPNYTEIRQYCNHWRNFADIDDSWKSIKSILDWTSRNQERIVDVAGPGGWNDPDMLVIGNFGLSWDQQVTQMALWAIMAAPLFMSNDLRHISPQAKALLQDKDVIAINQDPLGKQGYQLRKGDNFEVWERPLSGDAWAVAIINRQEIGGPRSYTIPVASLGKGVACNPACFITQLLPVKRQLGFYNWTSRLKSHINPTGTVLLQLENTMQMSLKDLL
modifications: Synthetic Polypeptide sequence of Variant No. 388 of mature Human GLA
B2: 389 (protein)
chain: LDNGLARTPTMGWLHWERFMCNLDCQEEPDSCISEKLFMEMAERMVSEGWKDAGYEYLCIDDCWMAPQRDSEGRLQADPQRFPHGIRQLANYSHSKGLKLGIYADVGNKTCAGFPGSFGYYDIDAQTFADWGVDLLKFDGCYCDSLENLADGYKHMSLALNRTGRSIVYSCEWPLYMWPFQKPNYTEIRQYCNHWRNFADIDDSWKSIKSILDWTSRNQERIVDVAGPGGWNDPDMLVIGNFGLSWDQQVTQMALWAIMAAPLFMSNDLRHISPQAKALLQDKDVIAINQDPLGKQGYQLRKGDNFEVWERPLSGDAWAVAIINRQEIGGPRSYTIPVASLGKGVACNPACFITQLLPVKRQLGFYNWTSRLKSHINPTGTVLLQLENTMQMSLKDLL
modifications: Synthetic Polypeptide sequence of Variant No. 389 of mature Human GLA
B3: 390 (protein)
chain: LDNGLARTPTMGWLHWERFMCNLDCQEEPDSCISEKLFMEMAERMVSEGWKDAGYEYLCIDDCWMAPQRDSEGRLQADPQRFPHGIRQLANYQHSKGLKLGIYADVGNKTCAGFPGSFGYYDIDAQTFADWGVDLLKFDGCYCDSLENLADGYKHMSLALNRTGRSIVYSCEWPLYMWPFQKPNYTEIRQYCNHWRNFADIDDSWKSIKSILDWTSRNQERIVDVAGPGGWNDPDMLVIGNFGLSWDQQVTQMALWAIMAAPLFMSNDLRHISPQAKALLQDKDVIAINQDPLGKQGYQLRKGDNFEVWERPLSGDAWAVAIINRQEIGGPRSYTIPVASLGKGVACNPACFITQLLPVKRQLGFYNWTSRLKSHINPTGTVLLQLENTMQMSLKDLL
modifications: Synthetic Polypeptide sequence of Variant No. 390 of mature Human GLA
B4: 547 (protein)
chain: LDNGLARTPTMGWLHWERFMCNLDCQEEPDSCISEKLFMEMAERMVSEGWKDAGYEYLCIDDCWMAPQRDSEGRLQADPQRFPHGIRQLANHVHSKGLKLGIYADVGNKTCAGFPGSFGYYDIDAQTFADWGVDLLKFDGCYCDSLENLADGYKHMSLALNRTGRSIVYSCEWPLYMWPFQKPNYTEIRQYCNHWRNFADIDDSWASIKSILDWTSRNQERIVDVAGPGGWNDPDMLVIGNFGLSWDQQVTQMALWAIMAAPLFMSNDLRHISPQAKALLQDKDVIAINQDPLGLQGYQLRKGDNFEVWERPLSGDAWAVAIINRQEIGGPRSYTIPVASLGKGVACNPACFITQLLPVKRQLGFYNWTSRLKSHINPTGTVLLQLENTMQMSLKDLL
modifications: Synthetic Polypeptide sequence of Variant No. 547 of mature Human GLA
B5: 548 (protein)
chain: LDNGLARTPTMGWLHWERFMCNLDCQEEPDSCISEKLFMEMAERMVSEGWKDAGYEYLCIDDCWMAPQRDSEGRLQADPQRFPHGIRQLANHVHSKGLKLGIYADVGNKTCAGFPGSFGYYDIDAQTFADWGVDLLKFDGCYCDSLENLADGYKHMSLALNRTGRSIVYSCEWPLYMWPFQKPNYTEIRQYCNHWRNFADIDDSWASIKSILDWTSRNQERIVDVAGPGGWNDPDMLVIGNFGLSWDQQVTQMALWAIMAAPLFMSNDLRHISPQAKALLQDKDVIAINQDPLGNQGYQLRKGDNFEVWERPLSGDAWAVAIINRQEIGGPRSYTIPVASLGKGVACNPACFITQLLPVKRQLGFYNWTSRLKSHINPTGTVLLQLENTMQMSLKDLL
modifications: Synthetic Polypeptide sequence of Variant No. 548 of mature Human GLA
B6: 549 (protein)
chain: LDNGLARTPTMGWLHWERFMCNLDCQEEPDSCISEKLFMEMAERMVSEGWKDAGYEYLCIDDCWMAPQRDSEGRLQADPQRFPHGIRQLANHVHSKGLKLGIYADVGNKTCAGFPGSFGYYDIDAQTFADWGVDLLKFDGCYCDSLENLADGYKHMSLALNRTGRSIVYSCEWPLYMWPFQKPNYTEIRQYCNHWRNFADIDDSWASIKSILDWTSRNQERIVDVAGPGGWNDPDMLVIGNFGLSWDQQVTQMALWAIMAAPLFMSNDLRHISPQAKALLQDKDVIAINQDPLGQQGYQLRKGDNFEVWERPLSGDAWAVAIINRQEIGGPRSYTIPVASLGKGVACNPACFITQLLPVKRQLGFYNWTSRLKSHINPTGTVLLQLENTMQMSLKDLL
modifications: Synthetic Polypeptide sequence of Variant No. 549 of mature Human GLA
B7: 550 (protein)
chain: LDNGLARTPTMGWLHWERFMCNLDCQEEPDSCISEKLFMEMAERMVSEGWKDAGYEYLCIDDCWMAPQRDSEGRLQADPQRFPHGIRQLANHVHSKGLKLGIYADVGNKTCAGFPGSFGYYDIDAQTFADWGVDLLKFDGCYCDSLENLADGYKHMSLALNRTGRSIVYSCEWPLYMWPFQKPNYTEIRQYCNHWRNFADIDDSWASIKSILDWTSRNQERIVDVAGPGGWNDPDMLVIGNFGLSWDQQVTQMALWAIMAAPLFMSNDLRHISPQAKALLQDKDVIAINQDPLGSQGYQLRKGDNFEVWERPLSGDAWAVAIINRQEIGGPRSYTIPVASLGKGVACNPACFITQLLPVKRQLGFYNWTSRLKSHINPTGTVLLQLENTMQMSLKDLL
modifications: Synthetic Polypeptide sequence of Variant No. 550 of mature Human GLA
B8: 551 (protein)
chain: LDNGLARTPTMGWLHWERFMCNLDCQEEPDSCISEKLFMEMAERMVSEGWKDAGYEYLCIDDCWMAPQRDSEGRLQADPQRFPHGIRQLANHVHSKGLKLGIYADVGNKTCAGFPGSFGYYDIDAQTFADWGVDLLKFDGCYCDSLENLADGYKHMSLALNRTGRSIVYSCEWPLYMWPFQKPNYTEIRQYCNHWRNFADIDDSWASIKSILDWTSRNQERIVDVAGPGGWNDPDMLVIGNFGLSWDQQVTQMALWAIMAAPLFMSNDLRHISPQAKALLQDKDVIAINQDPLGTQGYQLRKGDNFEVWERPLSGDAWAVAIINRQEIGGPRSYTIPVASLGKGVACNPACFITQLLPVKRQLGFYNWTSRLKSHINPTGTVLLQLENTMQMSLKDLL
modifications: Synthetic Polypeptide sequence of Variant No. 551 of mature Human GLA

Tests used:
Assay type in all cases: biochemical
[1] = HTP-analysis of yeast culture supernatants, no challenge (MUGal hydrolysis)
Procedure, shortened: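 GLA variants expressed in yeast INVSc1, secreted into SD-Ura broth over 66-84 h at 30° C; clarified supernatants tested without challenge. Supernatant mixed with McIlvaine buffer pH 4.8 and 2 mM MUGal (citrate/KCl, pH 4.6), 37° C for 30-180 min, carbonate-quenched, fluorescence Ex 355/Em 448 nm.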

[2] = HTP-analysis of supernatants pretreated with base (MUGal hydrolysis); settings: for Relative Activity of GLA Variants After Challenge at pH 9.65: activity of the variant/activity of Rd4BB (SEQ ID NO: 15); for Relative Activity of GLA Variants After Challenge at pH 9.7: activity of the variant/activity of Rd3BB (SEQ ID NO: 13)
Procedure, shortened: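 GLA variants secreted from yeast INVSc1; culture supernatants pre-incubated with McIlvaine buffer pH 7.0–8.2 or 200 mM bicarbonate pH 9.1–9.7 at 37° C. for 1–18 h. Residual activity: MUGal (4 mM stock) hydrolysis at pH 4.3–4.8, 37° C., 30–180 min, carbonate quench; fluorescence Ex 355/Em 448 nm.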

[3] = HTP-analysis of supernatants pretreated with acid (MUGal hydrolysis); settings: challenge at pH 3.7
Procedure, shortened: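 GLA variants were secreted from INVSc1 yeast grown 66-84 h at 30° C. in SD-Ura with 2% glucose; supernatants were mixed with McIlvaine buffer pH 3.3-4.3 and held at 37° C. for 1-3 h. Residual activity on MUGal at pH 4.8 was then measured by fluorescence.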

[4] = activity of the variant/activity of Rd4BB (SEQ ID NO: 15)
[5] = activity of the variant/activity of Rd3BB (SEQ ID NO: 13)

| Molecule | Relative Activity of GLA Variants After No Challenge (NC) [1, 4] | Relative Activity of GLA Variants After Challenge at pH 9.65 [2] | Relative Activity of GLA Variants After Challenge at pH 3.7 [3, 4] | Relative Activity of GLA Variants After No Challenge (NC) [1, 5] | Relative Activity of GLA Variants After Challenge at pH 9.7 [2] | Relative Activity of GLA Variants After Challenge at pH 3.7 [3, 5] |
| --- | --- | --- | --- | --- | --- | --- |
| B1 | + (0.5 to 1.5 relative activity over Rd4BB (SEQ ID NO: 15)) | + (0.5 to 1.5 relative activity over Rd4BB (SEQ ID NO: 15)) | − (<0.5 relative activity over Rd4BB (SEQ ID NO: 15)) | – | – | – |
| B2 | + (0.5 to 1.5 relative activity over Rd4BB (SEQ ID NO: 15)) | − (<0.5 relative activity over Rd4BB (SEQ ID NO: 15)) | + (0.5 to 1.5 relative activity over Rd4BB (SEQ ID NO: 15)) | – | – | – |
| B3 | + (0.5 to 1.5 relative activity over Rd4BB (SEQ ID NO: 15)) | − (<0.5 relative activity over Rd4BB (SEQ ID NO: 15)) | + (0.5 to 1.5 relative activity over Rd4BB (SEQ ID NO: 15)) | – | – | – |
| B4 | – | – | – | + (+ = 1.5 to 5 relative activity over Rd3BB (SEQ ID NO: 13)) | ++ (++ = >5 to 10 relative activity over Rd3BB (SEQ ID NO: 13)) | + (+ = 1.5 to 5 relative activity over Rd3BB (SEQ ID NO: 13)) |
| B5 | – | – | – | + (+ = 1.5 to 5 relative activity over Rd3BB (SEQ ID NO: 13)) | ++ (++ = >5 to 10 relative activity over Rd3BB (SEQ ID NO: 13)) | +++ (+++ = >10 relative activity over Rd3BB (SEQ ID NO: 13)) |
| B6 | – | – | – | + (+ = 1.5 to 5 relative activity over Rd3BB (SEQ ID NO: 13)) | ++ (++ = >5 to 10 relative activity over Rd3BB (SEQ ID NO: 13)) | ++ (++ = >5 to 10 relative activity over Rd3BB (SEQ ID NO: 13)) |
| B7 | – | – | – | + (+ = 1.5 to 5 relative activity over Rd3BB (SEQ ID NO: 13)) | ++ (++ = >5 to 10 relative activity over Rd3BB (SEQ ID NO: 13)) | + (+ = 1.5 to 5 relative activity over Rd3BB (SEQ ID NO: 13)) |
| B8 | – | – | – | + (+ = 1.5 to 5 relative activity over Rd3BB (SEQ ID NO: 13)) | ++ (++ = >5 to 10 relative activity over Rd3BB (SEQ ID NO: 13)) | + (+ = 1.5 to 5 relative activity over Rd3BB (SEQ ID NO: 13)) |

Source: patent US11278600B2, “Human alpha-galactosidase variants” (Codexis, Inc., priority 2014, dated 2022)
